This passage reports Kd results from publication PMC8946217, “Selective Targeting of Protein Kinase C (PKC)-θ Nuclear Translocation Reduces Mesenchymal Gene Signatures and Reinvigorates Dysfunctional CD8^+ T Cells in Immunotherapy-Resistant and Metastatic Cancers” (Cancers, 2022).

The experiment concerns the target biotinylated GST-importin α2 (UniProt P52293 1-529, biotinylated). Put plainly: AlphaScreen or HTRF; about 30 nM His6-PKC-θ and increasing concentrations of biotinylated GST-importins; in triplicate; three parameter sigmoidal curves fitted; quenched values in the hooking zone excluded. As to conditions: both partners purified. (In general: In Alpha technology, singlet oxygen from a donor bead excites a nearby acceptor bead.)

B1: His6-PKC-θ (protein kinase C theta) (enzyme)
chain: MSPFLRIGLSNFDCGSCQSCQGEAVNPYCAVLVKEYVESENGQMYIQKKPTMYPPWDSTFDAHINKGRVMQIIVKGKNVDLISETTVELYSLAERCRKNNGKTEIWLELKPQGRMLMNARYFLEMSDTKDMNEFETEGFFALHQRRGAIKQAKVHHVKCHEFTATFFPQPTFCSVCHEFVWGLNKQGYQCRQCNAAIHKKCIDKVIAKCTGSAINSRETMFHKERFKIDMPHRFKVYNYKSPTFCEHCGTLLWGLARQGLKCDACGMNVHHRCQTKVANLCGINQKLMAEALAMIESTQQARCLRDTEQIFREGPVEIGLPCSIKNEARPPCLPTPGKREPQGISWESPLDEVDKMCHLPEPELNKERPSLQIKLKIEDFILHKMLGKGSFGKVFLAEFKKTNQFFAIKALKKDVVLMDDDVECTMVEKRVLSLAWEHPFLTHMFCTFQTKENLFFVMEYLNGGDLMYHIQSCHKFDLSRATFYAAEIILGLQFLHSKGIVYRDLKLDNILLDKDGHIKIADFGMCKENMLGDAKTNTFCGTPDYIAPEILLGQKYNHSVDWWSFGVLLYEMLIGQSPFHGQDEEELFHSIRMDNPFYPRWLEKEAKDLLVKLFVREPEKRLGVRGDIRQHPLFREINWEELERKEIDPPFRPKVKSPFDCSNFDKEFLNEKPRLSFADRALINSMDQNMFRNFSFMNPGMERLIS
notes: protein kinase C theta (PKC-θ); also called recombinant purified His6-PKC-θ; source: recombinant, purified
The Kd is the equilibrium constant for the complex coming apart. Low readings indicate a tighter complex, high ones a looser complex. For B1, binding was characterised by a dissociation constant (Kd) of 2.75 nM.
